The test system of data set [1] is HeLa Kyoto. Put plainly: solubility change mitosis vs G1/S (difference of NP-40 vs SDS log2 ratios) (log2 ratio difference); higher = more soluble in mitosis.
Data set [2] has as its system HeLa Kyoto. Put plainly: melting temperature (median over replicates), in situ; higher = more thermally stable.
The subject of data set [3] is HeLa Kyoto. Briefly: thermal stability score vs G1/S (z-score of summed log2 fold changes over temperatures); higher = more thermally stable than in G1/S.
Data set [4] has as its system HeLa Kyoto. Briefly: solubility in G1/S (NP-40 vs SDS abundance) (log2 ratio); higher = more soluble. The note with it: cell cycle stage: G1/S.
[5] abbreviates: cell cycle stage: early G1 (4.5 h after nocodazole release).
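Wherever melting temperature (median over replicates), in situ is given: HeLa Kyoto cells synchronized by double thymidine or nocodazole block, proteins quantified by TMT10plex mass spectrometry, three independent biological replicates.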
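Wherever solubility change mitosis vs G1/S (difference of NP-40 vs SDS log2 ratios) is given: synchronized HeLa Kyoto cells (double thymidine block for G1/S, nocodazole release for mitosis), protein amounts in NP-40 versus SDS lysates quantified by mass spectrometry, three biological replicates.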
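Wherever solubility in G1/S (NP-40 vs SDS abundance) is given: HeLa Kyoto cells arrested at G1/S by double thymidine block, proteins quantified by TMT10plex mass spectrometry in mild NP-40 versus SDS extracts, three biological replicates.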
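Wherever thermal stability score vs G1/S (z-score of summed log2 fold changes over temperatures) is given: synchronized HeLa Kyoto cells, proteins quantified by TMT10plex mass spectrometry, three biological replicates, mitosis taken 0.5 h after nocodazole release, G1/S directly after double thymidine block.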

With “MDMKRRIHLELRNRTPAAVRELVLDNCKSNDGKIEGLTAEFVNLEFLSLINVGLISVSNLPKLPKLKKLELSENRIFGGLDMLAEKLPNLTHLNLSGNKLKDISTLEPLKKLECLKSLDLFNCEVTNLNDYRESVFKLLPQLTYLDGYDREDQEAPDSDAEVDGVDEEEEDEEGEDEEDEDDEDGEEEEFDEEDDEDEDVEGDEDDDEVSEEEEEFGLDEEDEDEDEDEEEEEGGKGEKRKRETDDEGEDD [ANP32B]”, the “solubility change mitosis (log2)” value in data set [1] amounted to 0.205. Besides, the results for the melting temperature in data set [2] (cell cycle stage: G1/S) and in data set [2] (cell cycle stage: mitosis) were 48.5 °C and 53.3 °C, respectively. For the same sequence, the thermal stability score in data set [3] (setting [5]) turned out to be 2.33; in data set [3] (cell cycle stage: mitosis) it was 3.78. Moreover, in data set [4], the “solubility in G1/S (log2)” value was -0.0836.
Regarding “MDNQCTVQVRLELGHRAQLRKKPTTEGFTHDWMVFVRGPEQCDIQHFVEKVVFWLHDSFPKPRRVCKEPPYKVEESGYAGFIMPIEVHFKNKEEPRKVCFTYDLFLNLEGNPPVNHLRCEKLTFNNPTTEFRYKLLRAGGVMVMPEGADTVSRPSPDYPMLPTIPLSAFSDPKKTKPSHGSKDANKESSKTSKPHKVTKEHRERPRKDSESKSSSKELEREQAKSSKDTSRKLGEGRLPKEEKAPPPKAAFKEPKMALKETKLESTSPKGGPPPPPPPPPRASSKRPATADSPKPSAKKQKKSSSKGSRSAPGTSPRTSSSSSFSDKKPAKDKSSTRGEKVKAESEPREAKKALEVEESNSEDEASFKSESAQSSPSNSSSSSDSSSDSDFEPSQNHSQGPLRSMVEDLQSEESDEDDSSSGEEAAGKTNPGRDSRLSFSDSESDNSADSSLPSREPPPPQKPPPPNSKVSGRRSPESCSKPEKILKKGTYDKAYTDELVELHRRLMALRERNVLQQIVNLIEETGHFNVTNTTFDFDLFSLDETTVRKLQSCLEAVAT [MLLT1]”, the “solubility change mitosis (log2)” value in data set [1] was 0.264. Besides, the melting temperature in data set [2] (cell cycle stage: G1/S) was determined as 50.5 °C; in data set [2] (cell cycle stage: mitosis) it was 53 °C. The thermal stability score in data set [3] (setting [5]) was -0.27; in data set [3] (cell cycle stage: mitosis), 0.333. For the same sequence, in data set [4], the “solubility in G1/S (log2)” value was -0.205.
“MDPAARVVRALWPGGCALAWRLGGRPQPLLPTQSRAGFAGAAGGPSPVAAARKGSPRLLGAAALALGGALGLYHTARWHLRAQDLHAERSAAQLSLSSRLQLTLYQYKTCPFCSKVRAFLDFHALPYQVVEVNPVRRAEIKFSSYRKVPILVAQEGESSQQLNDSSVIISALKTYLVSGQPLEEIITYYPAMKAVNEQGKEVTEFGNKYWLMLNEKEAQQVYGGKEARTEEMKWRQWADDWLVHLISPNVYRTPTEALASFDYIVREGKFGAVEGAVAKYMGAAAMYLISKRLKSRHRLQDNVREDLYEAADKWVAAVGKDRPFMGGQKPNLADLAVYGVLRVMEGLDAFDDLMQHTHIQPWYLRVERAITEASPAH [PTGES2]”: the “solubility change mitosis (log2)” value in data set [1] was -0.0374. The melting temperature came to 54.6 °C in data set [2] (cell cycle stage: G1/S) and 54.9 °C in data set [2] (cell cycle stage: mitosis). The figures for the thermal stability score in data set [3] (setting [5]) and in data set [3] (cell cycle stage: mitosis) were 1.5 and 0.796, respectively. Also, the “solubility in G1/S (log2)” value in data set [4] was determined as 0.0509.
As for “MDPECAQLLPALCAVLVDPRQPVADDTCLEKLLDWFKTVTEGESSVVLLQEHPCLVELLSHVLKVQDLSSGVLSFSLRLAGTFAAQENCFQYLQQGELLPGLFGEPGPLGRATWAVPTVRSGWIQGLRSLAQHPSALRFLADHGAVDTIFSLQGDSSLFVASAASQLLVHVLALSMRGGAEGQPCLPGGDWPACAQKIMDHVEESLCSAATPKVTQALNVLTTTFGRCQSPWTEALWVRLSPRVACLLERDPIPAAHSFVDLLLCVARSPVFSSSDGSLWETVARALSCLGPTHMGPLALGILKLEHCPQALRTQAFQVLLQPLACVLKATVQAPGPPGLLDGTADDATTVDTLLASKSSCAGLLCRTLAHLEELQPLPQRPSPWPQASLLGATVTVLRLCDGSAAPASSVGGHLCGTLAGCVRVQRAALDFLGTLSQGTGPQELVTQALAVLLECLESPGSSPTVLKKAFQATLRWLLSSPKTPGCSDLGPLIPQFLRELFPVLQKRLCHPCWEVRDSALEFLTQLSRHWGGQADFRCALLASEVPQLALQLLQDPESYVRASAVTAMGQLSSQGLHAPTSPEHAEARQSLFLELLHILSVDSEGFPRRAVMQVFTEWLRDGHADAAQDTEQFVATVLQAASRDLDWEVRAQGLELALVFLGQTLGPPRTHCPYAVALPEVAPAQPLTEALRALCHVGLFDFAFCALFDCDRPVAQKSCDLLLFLRDKIASYSSLREARGSPNTASAEATLPRWRAGEQAQPPGDQEPEAVLAMLRSLDLEGLRSTLAESSDHVEKSPQSLLQDMLATGGFLQGDEADCY [BRAT1]”, the “solubility change mitosis (log2)” value in data set [1] was -0.141. The melting temperature in data set [2] (cell cycle stage: G1/S) was found to be 46.5 °C; in data set [2] (cell cycle stage: mitosis), 48.4 °C. The thermal stability score in data set [3] (setting [5]) stood at 1.55; in data set [3] (cell cycle stage: mitosis) it was 4.01. Moreover, the “solubility in G1/S (log2)” value in data set [4] was 0.0286.

Values taken from the supplement of paper PMC5998384.
